The text below walks through data of US20250302982A1 (Genmab, published 2025).

For assay [1], the target named is T1, Tissue Factor (TF) (human, UniProt P13726 33-295). Description: cell-based or functional assay.
Assay [2] concerns the target T1, Tissue Factor (TF). Description: flow cytometry on HNSCC cell lines, 2 µg/ml tisotumab, PE-conjugated goat (Fab')2 anti-human IgG secondary. On the technique in general: A flow cytometer gives signals particle by particle.

B1: tisotumab vedotin (antibody, IgG1, V domains shown)
VH: EVQLLESGGGLVQPGGSLRLSCAASGFTFSNYAMSWVRQAPGKGLEWVSSISGSGDYTYYTDSVKGRFTISRDNSKNTLYLQMNSLRAEDTAVYYCARSPWGYYLDSWGQGTLVTVSS
VL: DIQMTQSPPSLSASAGDRVTITCRASQGISSRLAWYQQKPEKAPKSLIYAASSLQSGVPSRFSGSGSGTDFTLTISSLQPEDFATYYCQQYNSYPYTFGQGTKLEIK
modifications: MC-vc-PAB-MMAE (vcMMAE) attached to sulphydryl residues of the antibody; positions not given
With B1, in the assay with Tissue Factor (TF) [1], the “IC50 of cell killing (percent viable cells, Cell Titer-Blue, day 5); HNSCC cell lines with intermediate and high TF expression” value is 2.5 to 7 ng/mL; the “IC50 of cell killing (percent viable cells, Cell Titer-Blue, day 5); primary keratinocytes and VU-SCC-OE (low TF expression)” value is over 0.025 µg/mL.

B2: tisotumab (antibody, IgG1, V domains shown)
VH: B1 VH
VL: B1 VL
notes: Tested as IgG1 (IgG1-1015-011, Genmab); also called antibody 011; IgG1-1015-011
With B2, the binding result with Tissue Factor (TF) [2] was “binds”.
